Assay results: US20250270295A1 (ALBERT LUDWIGS UNIVERSITAET FREIBURG, published 2025)

Columns and labels:
[1] = target: T1, gp34mtrp (W65F) on stably transduced HeLa cells (HCMV strain AD169, UniProt P16809 24-234); experiment: flow cytometry, HeLa
T1 construct: whole, on cells; also called plasma membrane exposed gp34mtrp
T1 sequence: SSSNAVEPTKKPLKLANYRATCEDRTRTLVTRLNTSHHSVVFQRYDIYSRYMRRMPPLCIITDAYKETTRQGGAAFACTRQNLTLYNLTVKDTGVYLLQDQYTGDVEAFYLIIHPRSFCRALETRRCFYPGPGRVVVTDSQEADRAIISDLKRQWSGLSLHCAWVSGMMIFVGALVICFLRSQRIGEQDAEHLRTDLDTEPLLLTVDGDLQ

[2] = target: T2, soluble human ICOSL ectodomain, V5-His tagged (sICOSL-V5His) (human, UniProt O75144 19-256); experiment: western blot
T2 construct: extracellular domain; Control protein with the same tags as the vFcγRs
T2 sequence: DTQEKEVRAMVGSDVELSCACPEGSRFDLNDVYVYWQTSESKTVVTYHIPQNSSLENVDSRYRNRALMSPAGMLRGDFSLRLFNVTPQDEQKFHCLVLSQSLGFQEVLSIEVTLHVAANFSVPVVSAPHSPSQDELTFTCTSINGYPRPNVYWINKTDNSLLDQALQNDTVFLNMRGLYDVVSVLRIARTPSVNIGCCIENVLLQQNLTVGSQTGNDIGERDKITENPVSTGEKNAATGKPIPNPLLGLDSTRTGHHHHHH

[3] = target: T3, gp34wt on stably transduced HeLa cells (HCMV strain AD169, UniProt P16809 24-234); experiment: flow cytometry, HeLa, 1 µg/ml
T3 construct: whole, on cells; also called plasma membrane exposed gp34wt
T3 sequence: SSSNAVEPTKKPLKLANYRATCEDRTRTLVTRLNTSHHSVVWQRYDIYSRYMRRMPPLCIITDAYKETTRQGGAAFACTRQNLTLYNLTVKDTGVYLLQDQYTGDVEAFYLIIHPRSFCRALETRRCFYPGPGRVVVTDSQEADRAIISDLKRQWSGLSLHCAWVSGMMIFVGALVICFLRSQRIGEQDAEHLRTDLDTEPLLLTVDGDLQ

[4] = target: T4, soluble gp34 wild type ectodomain, V5-His tagged (sgp34wt-V5-His) (HCMV strain AD169); experiment: blocking of sgp34wt binding to immobilized human IgG, ELISA
T4 construct: Entry holds signal peptide 1-23 (left out), ectodomain, V5 tag and His tag; Forms monomers, dimers and higher oligomers; also called sol gp34 wt; gp34 1-179
T4 chain: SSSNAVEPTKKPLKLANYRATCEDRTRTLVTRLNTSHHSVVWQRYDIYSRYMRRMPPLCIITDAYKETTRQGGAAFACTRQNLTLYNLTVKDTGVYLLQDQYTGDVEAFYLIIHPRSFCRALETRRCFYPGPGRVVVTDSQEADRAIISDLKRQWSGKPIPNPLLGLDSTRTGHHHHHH
Protocol: FIG. 44: IgG blocking ability by anti-gp34mtrp mAbs. vFcγR gp34 is an HCMV encoded IgG-Fc-binding. Anti-gp34mtrp-specific mAbs (in titration) were pre-incubated with recombinant, sgp34wt (constant amount 1 μg/ml) and added to IgG-immobilized ELISA plates. […] Dose-dependent potential of mAbs used for blocking is indicated. Effect by non-specific mouse IgG isotype IgG1 is shown. In addition, binding of sgp34wt to immobilized IgG in absence of any mAb is depicted.
To test if anti-gp34wt specific mAbs can interfere with IgG-binding ability of gp34 and human IgG. Therefore, recombinant, sgp34wt was pre-incubated with indicated anti-gp34wt specific mAbs, mouse IgG isotype or PBS only. Next, antibody bound sgp34wt was incubated on IgG-immobilized ELISA plates.
Anti-gp34wt-specific mAbs (in titration) were pre-incubated with recombinant, sgp34wt (constant amount 1 μg/ml) and added to IgG-immobilized ELISA plates. […] Dose-dependent potential of mAbs used for blocking is indicated. […] In addition, binding of sgp34wt to immobilized IgG in absence of any mAb is depicted.

[5] = target: T4, soluble gp34 wild type ectodomain, …; experiment: sgp34wt pre-incubated with mAb, ELISA on FcRn
Protocol: Furthermore, the gp34wt and FcRn interaction was investigated whereby various anti-gp34 mAbs were analyzed and their potential to block this interaction was identified. Experiments were performed as described before for IgG-blocking ELISA, but this time using immobilized FcRn as a novel gp34-ligand.
In addition, binding of sgp34wt to immobilized FcRn in absence of any mAb is depicted.

[6] = target: T4, soluble gp34 wild type ectodomain, …; experiment: sgp34wt pre-incubated with mAb, ELISA on CRP
Description: In addition, binding of sgp34wt to immobilized CRP in absence of any mAb is depicted.

[7] = target: T5, soluble gp34 ectodomain W65F, V5-His tagged (sgp34mtrp-V5-His) (HCMV strain AD169); experiment: ELISA mtrp
T5 construct: signal peptide 1-23 left out; V5 and His tags are in the entry; Forms only monomers and dimers; also called sol gp34mtrp; gp34 1-179 W65F
T5 chain: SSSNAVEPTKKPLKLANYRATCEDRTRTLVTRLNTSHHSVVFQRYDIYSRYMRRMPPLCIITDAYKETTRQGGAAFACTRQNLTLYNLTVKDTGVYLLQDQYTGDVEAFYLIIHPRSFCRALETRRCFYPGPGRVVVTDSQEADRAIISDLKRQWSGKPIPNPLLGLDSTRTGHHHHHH

Row | Binder | binding result [1] | binding result [2] | binding result [3] | IC50 [4] | percent blocking of gp34 FcRn-binding [5] | percent blocking of gp34-CRP-binding [6] | binding result [7]
1 | gp34wt.15 (antibody, V domains shown, mouse IgG1 hybridoma mAb; leader in entries; also called anti gp34 clone wt.15) VH: QVKLQQSGPELVKPGASVKMSCKASGYTFRSYYIHWVKQRPGQGLEWIGWNNPGDGTAKYNEKFKGKTTLTADKSSSTAYMLLSSLTSEDSAIYFCASFNTPDYWGQGTSVTVSS VL: not shown | no binding (tested: 1 µg/ml) | no binding | binds | 0.12 µg/mL |  |  | 
2 | gp34mtrp.05 (antibody, V domains shown, mouse IgG1 hybridoma mAb; leader in entries; also called anti gp34 clone mtrp.05) VH: EVKLLQSGPEVKKPGETVKISCKASGYTFTNYGMSWLRQAPGKGLKWMGWINTYTGEPTYADDFKGRFAFSLETSASTAYFQINNLKDEDTTTYFCARRAFGGLDYWGQGTSVTVSS VL: DIVMTQSPLSLPVSLGDQASISCRSSQSIVYTNGNTYLEWYLQKPGQSPKLLIYKVSNRFSGVPDRFSGSGSGTDFTLKISRVEAEDLGVYYCFQGSHVPWTFGGGTKLEIK |  |  |  | 5.34 µg/mL | ≤ 50% | ~50% | binds
3 | gp34mtrp.06 (antibody, V domains shown, mouse IgG1 hybridoma mAb; leader in entries; also called anti gp34 clone mtrp.06) VH: EVQLLQSGPEVKKPGETVKISCKASGYTFTNYGMSWLRQAPGKGLKWMGWINTYTGEPTYADDFKGRFAFSLETSASTAYFQINNLKNEDTTTYFCARRAFGGLDYWGQGTSVTVSS VL: DIVLTQSPLSLPVSLGDQASISCRSSQSIVYTNGNTYLEWYLQKPGQSPKLLIYKVSNRFSGVPDRFSGSGSGTDFTLKISRVEAEDLGVYYCFQGSHVPWTFGGGTKLEIK |  |  |  | 4.46 µg/mL | ≤ 50% | ~50% | binds
4 | gp34wt.13 (antibody, V domains shown, mouse IgG2a hybridoma mAb; leader in entries; also called anti gp34 clone wt.13) VH: EVQLVESGPELKKPGETVKISCKASGYAFTNYGMNWVKQTPGKGLKWMGWINTYTGKPTYADDFKGRFAFSLETSASSAYLQINNLKNEDTATYFCARRRGNSFDYWGQGTTLTVSS VL: DIVLTQSPSSLTVTAGEKVTMSCKSSQSLLNSGNQENCLTWYQQKPGQPPRLLIYWASTRESGVPDRFTGSGSGTDFTLTISSVQAEDLAVYYCQNDYTYPLTFGAGTKLELK |  | no binding |  |  |  |  | 
5 | gp34wt.14 (antibody, V domains shown, mouse IgG2a hybridoma mAb; leader in entries; also called anti gp34 clone wt.14) VH: QVKLLQSGPELKKPGETVKISCKASGYAFTNYGMNWVKQTPGKGLKWMGWINTYTGKPTYADDFKGRFAFSLETSASSAYLQINNLKNEDTATYFCARRRGNSFDYWGQGTTLTVSS VL: DIVITQSPSSLTVTAGEKVTMSCKSSQSLLNSGNQENCLTWYQQKPGQPPRLLIYWASTRESGVPDRFTGSGSGTDFTLTISSVQAEDLAVYYCQNDYTYPLTFGAGTKLELK |  | no binding |  |  |  |  | 
6 | gp34mtrp.03 (antibody, V domains shown, mouse IgG1 hybridoma mAb; leader in entries; also called anti gp34 clone mtrp.03) VH: EVQLEESGTVLARPGASVKMSCKASGYTFTSYWMHWVKQRPGQGLEWIGAIYPGNSDTGYNQKFKGKARLTAVTSTSTAYLELSSLTDEDSAVYFCTRLGYGDYWGQGTTLTVSS VL: DIVLTQTPSSMYASLGERVTITCKASQDINSYLTWFQQKPGKSPKTLIYRANRLVDGVPSRFSGSGSGQDYSLTINSLDYEDMGIYYCLQYDEFPPTFGGGTKLEIK |  |  |  | 0.152 µg/mL | ≤ 50% | ~50% | binds
7 | gp34mtrp.04 (antibody, V domains shown, mouse IgG1 hybridoma mAb; leader in entries; also called anti gp34 clone mtrp.04) VH: EVKLVQSGTVLARPGASVKMSCKASGYTFTSYWMHWVKQRPGQGLEWIGAIYPGNSDTGYNQKFKGKARLTAVTSTSTAYLELSSLTDEDSAVYFCTRLGYGDYWGQGTTLTVSS VL: DIVMTQTPSSMYASLGERVTITCKASQDINSYLTWFQQKPGKSPKTLIYRANRLVDGVPSRFSGSGSGQDYSLTINSLDYEDMGIYYCLQYDEFPPTFGGGTKLEIK |  |  |  | 0.147 µg/mL | ≤ 50% | ~50% | binds
8 | gp34wt.07 (antibody, V domains shown, mouse IgG1 hybridoma mAb; leader in entries; also called anti gp34 clone wt.07) VH: QVKLEESGPELVKTGASVKISCKASGYSFTSYQIYWVKQSHGKSLEWIGHISCYNGATSYNQKFKDKATFTVDTSSSTAYMQFNSLTSEDSAVYFCARYDYAPDYYAMDYWGQGTSVTVSS VL: DIVLTQTPASLAVSLGQRATISCRASESVDSYGNSFMHWYQQKPGQPPKLLIYLASNLESGVPARFSGSGSRTDFTLTIDPVEAEDAAIYYCQQNNEDPLTFGGGTKLELK | no binding (tested: 1 µg/ml) | no binding |  | 0.447 µg/mL |  |  | no binding
9 | gp34wt.08 (antibody, V domains shown, mouse IgG1 hybridoma mAb; leader in entries; also called anti gp34 clone wt.08) VH: EVQLEQSGPELVKTGASVKISCKASGYSFTSYQIYWVKQSHGKSLEWIGHISCYNGATSYNQKFKDKATFTVDTSSSTAYMQFNSLTSEDSAVYFCARYDYAPDYYAMDYWGQGTSVTVSS VL: DIVMTQTPASLAVSLGQRATISCRASESVDSYGNSFMHWYQQKPGQPPKLLIYLASNLESGVPARFSGSGSRTDFTLTIDPVEAEDAAIYYCQQNNEDPLTFGGGTKLELK | no binding (tested: 1 µg/ml) | no binding |  | 0.494 µg/mL |  |  | no binding
10 | gp34wt.09 (antibody, V domains shown, mouse IgG1 hybridoma mAb; leader in entries; also called anti gp34 clone wt.09) VH: EVQLEQSGPELVKPGASVKMSCKASGYTFTRPYIHWVKQRPGQGLEWIGWIYPGDGITKYNEKFKGKITLTADKSSSAAYMLLSSLTSEDSAIYFCASFTTPVYWGQGTSVTVSS VL: not shown | no binding (tested: 1 µg/ml) | no binding | binds | 0.063 µg/mL |  |  | no binding
11 | gp34wt.10 (antibody, V domains shown, mouse IgG1 hybridoma mAb; leader in entries; also called anti gp34 clone wt.10) VH: EVKLEQSGPELVKPGASVKMSCKASGYTFTRPYIHWVKQRPGQGLEWIGWIYPGDGITKYNEKFKGKITLTADKSSSAAYMLLSSLTSEDSAIYFCASFTTPVYWGQGTSVTVSS VL: not shown | no binding (tested: 1 µg/ml) | no binding | binds | 0.089 µg/mL |  |  | no binding
12 | gp34wt.12 (antibody, V domains shown, mouse IgG1 hybridoma mAb; leader in entries; also called anti gp34 clone wt.12) VH: EVKLQESGPELVKPGASVKMSCKASGYTVTRSYIHWVKQRPGQGLEWIGWIYPGDGSTKYNEKFKGKTTLTVDKSSSTAYMLLSSLTSEDSAIYFCASFTTPVYWGQGTSVTVSS VL: not shown | no binding (tested: 1 µg/ml) | no binding | binds | 0.07 µg/mL |  |  | no binding
13 | gp34wt.11 (antibody, V domains shown, mouse IgG1 hybridoma mAb; leader in entries; also called anti gp34 clone wt.11) VH: QVQLEESGPELVKPGASVKMSCKASGYTVTRSYIHWVKQRPGQGLEWIGWIYPGDGSTKYNEKFKGKTTLTVDKSSSTAYMLLSSLTSEDSAIYFCASFTTPVYWGQGTSVTVSS VL: not shown | no binding (tested: 1 µg/ml) | no binding | binds | 0.077 µg/mL |  |  | no binding
